Experimental data from publication doi:10.1101/637298.

T1: hZFY full-length (13-finger construct) (human, UniProt P08048 408-768)
T1 sequence: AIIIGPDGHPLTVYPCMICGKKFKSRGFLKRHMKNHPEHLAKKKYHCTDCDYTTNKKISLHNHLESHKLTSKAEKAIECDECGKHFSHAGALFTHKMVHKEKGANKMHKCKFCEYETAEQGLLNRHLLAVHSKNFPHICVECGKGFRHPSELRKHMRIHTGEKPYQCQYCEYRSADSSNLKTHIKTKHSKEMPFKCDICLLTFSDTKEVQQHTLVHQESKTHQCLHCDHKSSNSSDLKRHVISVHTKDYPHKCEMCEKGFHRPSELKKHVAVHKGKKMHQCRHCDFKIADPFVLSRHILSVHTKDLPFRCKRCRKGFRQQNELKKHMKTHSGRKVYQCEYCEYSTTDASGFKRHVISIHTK


Tests used:
[1] = molecular target: T1, hZFY full-length (13-finger construct); test: fluorescence anisotropy dissociation
[2] = molecular target: T1, hZFY full-length (13-finger construct); test: fluorescence anisotropy dissociation; remark: listed apart in the source

Binder | binding result [1] | binding signal [2]
S.S.S. (long) FAM probe (dsDNA) DNA 1: ACCTGGCCTAGTCGTTTTTGAGATCTTCATCAATTGCCGCATC DNA 2: GATGCGGCAATTGATGAAGATCTCAAAAACGACTAGGCCAGGT | binds | –
S.S.N. FAM probe (dsDNA) DNA 1: ACCTGGCCTAGTCGTTGCCCAGAT DNA 2: ATCTGGGCAACGACTAGGCCAGGT | – | ~2 fold shorter lifetime than SSS
